For this data set, the system named is hPBV RdRP WT (human picobirnavirus strain Hy005102). Briefly: EMSA. The conditions noted are these: 50 mM Tris-HCl pH 7.5, 50 mM KCl, 1 mM NaN3, 5 mM beta-mercaptoethanol, 10% glycerol, 1 nM 32P-RNA, 30 min at room temperature, 15% native PAGE in ice bath. On the technique in general: In EMSA bound probe runs differently from free probe, usually more slowly.

Substance CACACACACACACACACACA [CA repeat 20-mer] had a binding signal (fold lower affinity than 5'-(+)UTR) of 10.
In the case of GGACUAACAGUCCCAACUGC [PBV 3'-(+)UTR], the binding signal (fold lower affinity than 5'-(+)UTR) turned out to be 10.
GUAAAAUUUUCGAAUUUUAU [PBV 5'-(+)UTR]: the binding signal (scale: fold higher affinity than 3'-(+)UTR or CA repeat) is 10.
As for PBV2+ full-length, the binding signal (fold stronger than PBV2+(Δ1-645)) worked out at 10.
As to PBV2+(Δ1-645), the binding signal (fold weaker than full-length PBV2+) was 10.

The values above are taken from article PMC4831847.
